Paper PMC8442604 (Frontiers in Immunology, 2021)

How the values were obtained:
[1] = target: T1, SARS-CoV-2 RBD protein (321–591) (SARS-CoV-2, Wuhan-Hu-1 (MN908947), UniProt P0DTC2); test: cell-based or functional assay
[2] = target: T1, SARS-CoV-2 RBD protein (321–591); test: SPR; details: both partners purified

B1: S309H-XG81L (antibody, V domains shown)
VH: not shown
VL: DIQMTQSPSSLSASVGDRVTITCRASQSISSSLNWYQQKPGKAPKLLIYAASNLQSGVPSRFSGSGSGTDFTLTISSLQPEDFATYYCQQSFSTLFTFGPGTKVDLK
notes: also called rAb S309H-XG81L
IC50 of neutralisation of authentic SARS-CoV-2 on Vero E6 cells (CPE assay) [1]: 1.25 µg/mL | Kd [2]: 21.1 nM
